Publication PMC11532494 (Nature Communications, 2024)
Several values for one entry are separate records, joined by “and”; a condition that tells them apart may be missing. Equal values may be shown once. Read-outs that look alike come from different tables or passages of the source. No end group written: not given here. *: point of attachment. AMC = Cc1cc(=O)oc2cc(N*)ccc12

Columns and labels:
[1] = system: Controls; assay type: biochemical
[2] = biological target: LpApaH (3) (Legionella pneumophila, UniProt A0A2S6EWV0); assay type: biochemical
[3] = system: VcHdaH (5b); assay type: biochemical, Vibrio cholerae
[4] = biological target: PsApaH (4) (Pseudomonas sp. M30-35, UniProt A0A1Y0KY79); assay type: biochemical
Description: (§1) Experiments with SIRT2 and SIRT5 were supplemented with NAD^+ (500 µM). Thereafter, a solution of trypsin (25 µL, 5.0 mg/mL; final concentration of 2.5 mg/mL) was added, and the development of the assay was allowed to proceed for 90 min at room temperature before fluorescence analysis. […] To this end, a single category is given to all conversions >48% on the heatmap. […] For the H4-derived peptide LGKbio no positive control was available.

[5] = biological target: LcApaH (3) (Legionella cherrii, UniProt A0A0W0SGS1); assay type: biochemical
[6] = system: RsPrpH (1b); assay: Substrate screening assay (acyl-peptide-AMC); assay type: biochemical, Rhizorhabdus sp.
[7] = system: VsHdaH (1b); assay type: biochemical, Vibrio sp.
[8] = biological target: T1, BsAcuC (2c) (Bacillus subtilis, UniProt P39067); assay: Substrate screening assay (acyl-peptide-AMC); assay type: biochemical
T1 construct: made in house; host or cells: E. coli BL21 (DE3)
T1 sequence (P39067 1-387): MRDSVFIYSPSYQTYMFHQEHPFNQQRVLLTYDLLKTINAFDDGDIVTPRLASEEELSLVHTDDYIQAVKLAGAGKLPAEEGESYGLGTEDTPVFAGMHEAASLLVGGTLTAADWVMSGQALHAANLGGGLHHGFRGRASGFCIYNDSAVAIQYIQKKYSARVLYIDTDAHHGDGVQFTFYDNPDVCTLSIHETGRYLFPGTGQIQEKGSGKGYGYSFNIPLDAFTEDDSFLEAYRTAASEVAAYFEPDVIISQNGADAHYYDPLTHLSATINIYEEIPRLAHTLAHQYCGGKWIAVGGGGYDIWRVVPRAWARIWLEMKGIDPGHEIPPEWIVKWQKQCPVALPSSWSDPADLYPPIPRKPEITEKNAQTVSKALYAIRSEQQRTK
Description: as §1

[9] = biological target: KpHdaH (1b) (Klebsiella pneumoniae, UniProt A0A377Z5F6); assay type: biochemical
[10] = system: Controls; assay type: biochemical; remark: listed apart in the source
[11] = biological target: RwDmhA (1b) (Rhizorhabdus wittichii, UniProt A0A067XIQ6); assay type: biochemical
[12] = substrate screening, mean of two measurements
[13] = substrate screening, measurement 1 of two
[14] = substrate screening, measurement 2 of two

With “QPKKlau (QPKK-{AMC}; not fully specified (residue 4); printed as QPKKlau; also: lauroyl-lysine (which Lys not given here); UniProt P04637 317-320, looked up, fragment)” the “[AMC] (nM), controls, means” value [1] was 11337.89 nM, the “RFU means, LpApaH (3)” value [2] was 10.5 RFU and the “RFU*2 means, LpApaH (3)” value [2] was 21 RFU*2. The “[AMC] (nM), LpApaH (3), means” value [2] was 10.25 nM, the “RFU means, VcHdaH (5b)” value ([3]; means of two measurements) was -82 RFU and the “RFU*2 means, VcHdaH (5b)” value ([3]; means of two measurements) was -164 RFU*2. For the same substance, the “[AMC] (nM), VcHdaH (5b), means” value [3, 12] was -80.08 nM, the “RFU means, PsApaH (4)” value ([4]; means of two measurements) was 131 RFU and the “RFU*2 means, PsApaH (4)” value ([4]; means of two measurements) was 262 RFU*2. For the same substance, the “[AMC] (nM), PsApaH (4), means” value [4, 12] was 127.93 nM, the “[AMC] (nM), PsApaH (4)” value [4, 13] was 191.41 nM and the “[AMC] (nM), PsApaH (4)” value [4, 14] was 64.45 nM. The “RFU means, LcApaH (3)” value [5] was 6.5 RFU, the “RFU*2 means, LcApaH (3)” value [5] was 13 RFU*2 and the “[AMC] (nM), LcApaH (3), means” value [5] was 6.35 nM. The “RFU means, RsPrpH (1b)” value [6] was -143.5 RFU, the “RFU*2 means, RsPrpH (1b)” value [6] was -287 RFU*2 and the “[AMC] (nM), RsPrpH (1b), means” value [6] was -140.14 nM. The “RFU means, VsHdaH (1b)” value ([7]; means of two measurements) was -74 RFU, the “RFU*2 means, VsHdaH (1b)” value ([7]; means of two measurements) was -148 RFU*2 and the “[AMC] (nM), VsHdaH (1b), means” value [7, 12] was -72.27 nM. For the same substance, the “[AMC] (nM), VsHdaH (1b)” value [7, 13] was -150.39 nM, the “[AMC] (nM), VsHdaH (1b)” value [7, 14] was 5.86 nM and the “RFU means, BsAcuC (2c)” value ([8]; means of two measurements) was 849.5 RFU. For the same substance, the “RFU*2 means, BsAcuC (2c)” value ([8]; means of two measurements) was 1699 RFU*2, the “[AMC] (nM), BsAcuC (2c), means” value [8, 12] was 829.59 nM and the “RFU*2, BsAcuC (2c)” value ([8]; two measurements, single values) was 2008 RFU*2 and 1390 RFU*2. For the same substance, the “RFU means, KpHdaH (1b)” value ([9]; means of two measurements) was -136.5 RFU, the “RFU*2 means, KpHdaH (1b)” value ([9]; means of two measurements) was -273 RFU*2 and the “[AMC] (nM), KpHdaH (1b), means” value [9, 12] was -133.30 nM. The “[AMC] (nM), KpHdaH (1b)” value [9, 13] was -172.85 nM, the “[AMC] (nM), KpHdaH (1b)” value [9, 14] was -93.75 nM and the “RFU means, controls” value [10] was 11610 RFU. The “RFU*2, controls” value [10] was 21150 RFU*2 and 25290 RFU*2, the “RFU*2 means, controls” value [10] was 23220 RFU*2 and the “RFU, controls” value [10] was 10575 RFU and 12645 RFU. For the same substance, the “RFU means, RwDmhA (1b)” value [11] was -41 RFU, the “RFU*2 means, RwDmhA (1b)” value [11] was -82 RFU*2 and the “[AMC] (nM), RwDmhA (1b), means” value [11] was -40.04 nM.
